The record followed here is PMC9645763, “CK2-mediated phosphorylation of SUZ12 promotes PRC2 function by stabilizing enzyme active site” (Nature Communications, 2022).

The assay addresses T1, EZH1 of the truncated minimal complex used for crystallization (human, UniProt Q92800 1-187; Q92800 230-491; Q92800 497-747, residues 353–413 of EZH1 were deleted).
T1 construct: human EZH1, residues 1-187; linker that replaces residues 188–229 of EZH1; human EZH1, residues 230-491 with 353–413 deleted; linker that replaces residues 492–496 of EZH1; human EZH1, residues 497-747; In the crystal joined on one chain with m3 through an LVPRGS linker; source: S. cerevisiae CB010, purified (IgG-sepharose, TEV cleavage, Superdex 200); not shown: His6, N-terminal, …
Briefly: crystal structure; truncated minimal EZH1–EED–SUZ12(VEFS) complex at 10 mg/ml pre-incubated with 0.5 mM H3K27M peptide, 0.5 mM H3K27me3 peptide and 1 mM SAM; 10% PEG3350, 100 mM ammonium sulfate, 50 mM HEPES pH 6.8; 3.0 Å. To be noted: both partners purified.

T1 sequence (Q92800 other isoform, or with tags, fused parts or gaps with the stated changes): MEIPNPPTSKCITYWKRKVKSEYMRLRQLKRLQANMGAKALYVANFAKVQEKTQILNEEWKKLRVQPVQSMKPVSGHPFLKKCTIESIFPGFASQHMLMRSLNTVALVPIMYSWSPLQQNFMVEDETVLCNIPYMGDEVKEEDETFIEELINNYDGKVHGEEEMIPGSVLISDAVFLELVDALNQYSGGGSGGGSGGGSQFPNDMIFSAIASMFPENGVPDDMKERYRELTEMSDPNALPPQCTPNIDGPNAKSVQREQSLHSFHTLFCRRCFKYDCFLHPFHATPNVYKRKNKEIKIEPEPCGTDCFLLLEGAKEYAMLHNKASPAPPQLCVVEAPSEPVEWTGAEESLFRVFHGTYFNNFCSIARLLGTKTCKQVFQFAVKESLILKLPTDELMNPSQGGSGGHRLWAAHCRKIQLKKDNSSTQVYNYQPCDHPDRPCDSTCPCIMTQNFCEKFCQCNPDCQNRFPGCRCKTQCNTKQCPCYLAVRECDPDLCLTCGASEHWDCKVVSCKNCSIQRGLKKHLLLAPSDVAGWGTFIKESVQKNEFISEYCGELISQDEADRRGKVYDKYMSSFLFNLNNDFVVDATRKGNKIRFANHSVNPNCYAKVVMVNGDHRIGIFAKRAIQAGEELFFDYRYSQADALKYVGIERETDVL

B1: EED of the truncated minimal complex used for crystallization (domain or fragment)
chain: not shown
notes: human EED, residues 1–77 replaced by a StrepII tag; source: S. cerevisiae CB010, co-expressed, purified with the complex (IgG-sepharose, TEV cleavage, Superdex 200); not shown: StrepII, N-terminal, kept
B1: the binding result was “binds”.
